Measured values taken from publication PMC3149649, “Evidence for a Two-Metal-Ion Mechanism in the Cytidyltransferase KdsB, an Enzyme Involved in Lipopolysaccharide Biosynthesis” (PLoS ONE, 2011).

Molecular target: the molecule itself
Test: SEC; analytical gel filtration chromatography of purified AA-LCKS; conditions not given

B1: LPS-specific CMP-Kdo synthetase (KdsB) from Aquifex aeolicus (enzyme)
chain: MRRAVIIPARLGSTRLKEKPLKNLLGKPLIRWVVEGLVKTGERVILATDSERVKEVVEDLCEVFLTPSDLPSGSDRVLYVVRDLDVDLIINYQGDEPFVYEEDIKLIFRELEKGERVVTLARKDKEAYERPEDVKVVLDREGYALYFSRSPIPYFRKNDTFYPLKHVGIYGFRKETLMEFGAMPPSKLEQIEGLEQLRLLENGIKIKVLITENYYHGVDTEEDLKIVEEKLKNL
notes: CMP-Kdo synthetase KdsB (EC 2.7.7.38) of Aquifex aeolicus; the structure describes residues 2-234 (N-terminal domain 2-91 and 220-234, C-terminal domain 100-210); monomer 27 kDa by SDS-PAGE; No tag is mentioned; In the crystal the protein carries CTP and two Mg2+ ions; also called AA-LCKS; CKS
Q: With B1 as the protein, how does the “stoichiometry N” value read?
A: 2
